Source: patent US20170114146A1 (Hoffmann-La Roche, published 2017)

B1: CD33 CD3 TCB molecule B ("2+1 IgG CrossFab, inverted" with charge modifications, CD33 binders based on anti-CD33 antibody 2) (bispecific antibody)
chain 1: EVQLLESGGGLVQPGGSLRLSCAASGFTFSTYAMNWVRQAPGKGLEWVSRIRSKYNNYATYYADSVKGRFTISRDDSKNTLYLQMNSLRAEDTAVYYCVRHGNFGNSYVSWFAYWGQGTLVTVSSASVAAPSVFIFPPSDEQLKSGTASVVCLLNNFYPREAKVQWKVDNALQSGNSQESVTEQDSKDSTYSLSSTLTLSKADYEKHKVYACEVTHQGLSSPVTKSFNRGEC
chain 2: EVQLVQSGAEVKKPGSSVKVSCKASGYTITDSNIHWVRQAPGQSLEWIGYIYPYNGGTDYNQKFKNRATLTVDNPTNTAYMELSSLRSEDTAFYYCVNGNPWLAYWGQGTLVTVSSASTKGPSVFPLAPSSKSTSGGTAALGCLVEDYFPEPVTVSWNSGALTSGVHTFPAVLQSSGLYSLSSVVTVPSSSLGTQTYICNVNHKPSNTKVDEKVEPKSCDKTHTCPPCPAPEAAGGPSVFLFPPKPKDTLMISRTPEVTCVVVDVSHEDPEVKFNWYVDGVEVHNAKTKPREEQYNSTYRVVSVLTVLHQDWLNGKEYKCKVSNKALGAPIEKTISKAKGQPREPQVCTLPPSRDELTKNQVSLSCAVKGFYPSDIAVEWESNGQPENNYKTTPPVLDSDGSFFLVSKLTVDKSRWQQGNVFSCSVMHEALHNHYTQKSLSLSP
chain 3: not shown
chain 4: DIQLTQSPSTLSASVGDRVTITCRASESLDNYGIRFLTWFQQKPGKAPKLLMYAASNQGSGVPSRFSGSGSGTEFTLTISSLQPDDFATYYCQQTKEVPWSFGQGTKVEVKRTVAAPSVFIFPPSDRKLKSGTASVVCLLNNFYPREAKVQWKVDNALQSGNSQESVTEQDSKDSTYSLSSTLTLSKADYEKHKVYACEVTHQGLSSPVTKSFNRGEC
B2: CD33 CD3 TCB molecule A ("2+1 IgG CrossFab, inverted" with charge modifications, CD33 binders based on anti-CD33 antibody 1) (bispecific antibody)
chain 1: QVQLVQSGAEVKKPGSSVKVSCKASGYTFTDYNMHWVRQAPGQGLEWIGYIYPYNGGTGYNQKFKSKATITADESTNTAYMELSSLRSEDTAVYYCARGRPAMDYWGQGTLVTVSSASTKGPSVFPLAPSSKSTSGGTAALGCLVEDYFPEPVTVSWNSGALTSGVHTFPAVLQSSGLYSLSSVVTVPSSSLGTQTYICNVNHKPSNTKVDEKVEPKSCDKTHTCPPCPAPEAAGGPSVFLFPPKPKDTLMISRTPEVTCVVVDVSHEDPEVKFNWYVDGVEVHNAKTKPREEQYNSTYRVVSVLTVLHQDWLNGKEYKCKVSNKALGAPIEKTISKAKGQPREPQVCTLPPSRDELTKNQVSLSCAVKGFYPSDIAVEWESNGQPENNYKTTPPVLDSDGSFFLVSKLTVDKSRWQQGNVFSCSVMHEALHNHYTQKSLSLSP
chain 2: not shown
chain 3: B1 chain 1
chain 4: DIQMTQSPSSLSASVGDRVTITCRASESVDNYGISFMNWFQQKPGKAPKLLIYAASNQGSGVPSRFSGSGSGTDFTLTISSLQPDDFATYYCQQSKEVPWTFGQGTKVEIKRTVAAPSVFIFPPSDRKLKSGTASVVCLLNNFYPREAKVQWKVDNALQSGNSQESVTEQDSKDSTYSLSSTLTLSKADYEKHKVYACEVTHQGLSSPVTKSFNRGEC

Key:
Assay in all cases: cell-based or functional assay
[1] = molecular target: T1, CD33 (myeloid cell surface antigen CD33) on human AML cell lines HL-60 and HEL (human, UniProt P20138 18-364)
T1 sequence (P20138 18-364): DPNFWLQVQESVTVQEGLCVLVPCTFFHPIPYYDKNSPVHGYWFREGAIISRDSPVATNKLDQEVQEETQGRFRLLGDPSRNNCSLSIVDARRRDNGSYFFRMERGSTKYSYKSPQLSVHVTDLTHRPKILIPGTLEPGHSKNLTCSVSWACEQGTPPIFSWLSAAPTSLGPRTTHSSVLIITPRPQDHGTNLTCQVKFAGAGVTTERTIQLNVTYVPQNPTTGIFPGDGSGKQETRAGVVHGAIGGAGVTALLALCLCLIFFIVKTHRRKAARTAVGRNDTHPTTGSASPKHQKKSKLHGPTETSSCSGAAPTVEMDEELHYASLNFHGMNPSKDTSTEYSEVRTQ

[2] = molecular target: CD3 antigen expressed on Jurkat-NFAT reporter cells (human, UniProt P07766 23-207)
CD3 antigen expressed on Jurkat-NFAT reporter cells, sequence (P07766 23-207 limits assumed): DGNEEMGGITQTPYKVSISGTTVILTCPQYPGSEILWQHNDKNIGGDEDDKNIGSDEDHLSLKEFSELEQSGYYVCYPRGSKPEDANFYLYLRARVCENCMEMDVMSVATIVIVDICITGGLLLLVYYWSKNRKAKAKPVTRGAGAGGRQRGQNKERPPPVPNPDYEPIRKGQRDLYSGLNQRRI

[3] = molecular target: T1, CD33 (myeloid cell surface antigen …); remark: listed apart in the source

| Binder | EC50 [pM] 42 h, T-cell mediated killing of HL-60 tumor cells (LDH release, human pan T cells, E:T 5:1) [1] | EC50, activation of Jurkat-NFAT reporter cells via CD3 (luminescence, 5 h, HL-60 target cells, E:T 2.5:1) [2] | EC50, activation of Jurkat-NFAT reporter cells via CD3 (luminescence, 5 h, HL-60 target cells, E:T 2.5:1) [3] |
| --- | --- | --- | --- |
| B1 | 18.5 pM | 0.0043 nM | 0.0043 nM |
| B2 | 19.8 pM | 0.0794 nM | 0.0794 nM |
